According to the nanobody polyreactivity screen of Harvey et al. (2022):

experiment: yeast display, Sf9 membrane polyspecificity reagent, FACS + sequencing; frameworks hold sequencing errors
Procedure, shortened: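 Nanobodies came from a synthetic yeast display library in Saccharomyces cerevisiae BJ5465, induced with galactose for 36–48 hours and stained for 1 hour at 4 °C with 10% biotinylated, detergent-solubilized Sf9 membrane reagent. Cells were enriched on streptavidin microbeads and then FACS-sorted, with low and high (top ~1%) gates set on anti-HA fluorescence for expression and streptavidin fluorescence for reagent binding. Each polyreactivity label reflects the gate a clone came from. Genes were amplified by colony PCR, sequenced by MiSeq 2 × 250 and filtered by CDR length.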

Row | Sequence | polyreactivity (PSR sort gate)
1 | QVQLVESGGGLVQAGGSLRLSCAASGIIFVYNAMGWYRQAPGKERELVAVISFIGDSTYYADSVKGRFTISRDNAKNTVYLQMNSLKPEDTAVYYCAADYYLPYWFFVGYDYWGQGTQVTVSS | low polyreactivity
2 | QVQLVESGGGLVQAGGSLRLSCAASGSIFDAYMGWYRQAPGKERELVAGITRSGGSTYYADSVKGRFTISRDNAKNTVYLQMNSLKPEDTAVYYCAADYSSDGDYWGQGTQVTVSS | low polyreactivity
3 | QVQLVESGGGLVQAGGSLRLSCAASGSIFSYYAMGWYRQAPGKERELVAAIDRSGVSTYYADSVKGRFTISRDNAKNTVYLQMNSLKPEDTAVYYCNTDHRNICFRFKYDYWGQGTQVTVSS | high polyreactivity
4 | QVQLVESGGGLVQAGGSLRLSCAASGITFWLYAMGWYRQAPGKERELVAAITSGGSTTYADSVKGRFTISRDNAKNTVFLQMYSLKPEDSAVYYCNAEYQDWFGRLDYWGQGTQVTVSS | high polyreactivity
5 | QDQLVDSGGGLVQAGGSLRLSCAASGSTFGYYVMGWYRQAPGKERELVAAISDSDGSTYYADSVKGRFTISRDNAKNTVYLQMYSLKPEDTAVYYCATGPHQPPYSYLDYDYWGQGTQVTVSS | low polyreactivity
6 | QVQLVESGGGLVQAGGSLRLICAASGSTFNTYAMGRYRQAPGKERELVAAITWSGGRTYYADSVKGRFTISRDNAKNTVYLQMNSLKPEDTAVYYCAKGKGPTEYDYWGQGTQVTVSS | high polyreactivity
7 | QVQLVESGGGLVQAGGSLRLSCAASGGIFGFNAMGWYRQAPGKERELVADISDGVRTNYADSVKGRFTISRDNAKNTVFLQMNSLKPEDTAVYYCATDGLFYVDGSWTLGYWGQGTQVTVSS | low polyreactivity
8 | QVQLVESGGGLVQAGGSLRLSCAASGFIFFKYVMGWYRPAPGKERELVAAISTTGGRTYYADSVKGRFTISRDNAKNTVYLQMNSLKPEDTAVYYCAADYPVWNHGFDYWGQGTQVTVSS | high polyreactivity
9 | QVQLVDSGGGLVQAGGSLRLSCAASGSTSLKNAMGWSRQAPGKERELVAAISSGGSTYYADSVKGRFTISRDNAKNTVYLLMNSLKPEDTAVYYCAAKYLRGLGYWGQGTQVTVSS | high polyreactivity
10 | QVQLVESGGGLVQAGGSLRLSCAASGRIFVSNTMGWYRQAPGKDWEWVAAITSVGSTNYADSVKGRFTISRDHAKNTVYLQMNSLKPEDTAVYYCNADNPYSDGADSLGNYWGQGTQVTVSS | low polyreactivity
11 | QVQLVESGGGLVQAGGSLRLSCAPSGSIFIYYAMGWYRPAPGKERELVAAINIGGSTYYADSVKGRFTISRDNAKNSVYLQMKSLKPEDTAVYYCNAATWYRVYPYYIIYDYWGQGTQVTVSS | low polyreactivity
12 | QVQLVESGGGLVQAGGSLRLSCAASGFTFAWYTMGWYRQEPGKESELVAAISWSGGSTYYADSVKGRFTISPDNANKTVYLQMNILKPEDTAVYYCAVTTGLTRYEYWGQGTQVTVSS | high polyreactivity
13 | QVQLVESGGGLVQAGGSLRLSCAASGSIFVYYDMGWYRQAPGKERELVAAISTTCGRTYYADSVKGRFTISRDNAKNTVYLQMNSLKPEATAVYYCAARYTIPYKRYDYWGQGPQVTVSS | high polyreactivity
14 | QFQLVESVGGLVQAGGSLRLSCAASGFTFTAYAMGWYRQAPGTERELVAAISSGGSTYYADSVKGRFTISRDNAKNTVYLQMNSLKPEDTAVYYCAAVGVYTVKREYWGQGTQVTVSS | low polyreactivity
15 | QVQLVESGGGLVQAGGSLRLSCAASGRIFVDYAMGWYRQAPGKERELVAAITRSGDRTYYADSVKGRFTISRDNAKNTVYLQMNSLKPEDTAVYYCATVYPGYVWGQGTQVTVSS | low polyreactivity
16 | QVQLVESGGGLVQAGGSLRLSCAASGRIFSRNAMGWYRQAPRKEREFVAAISRRGTSTYYADSVKGRFTISRDNAKNTVYLQMHSLKPEDTAVYYCNAGGSPWYKPVYYRALYDYWGQGTQVTVSS | high polyreactivity
17 | QVQLVESGGGLVQAGGSLRLSCAASGSIFVYYAMGWYRQAPGNERELVAAINNGGSTTYADSVKGRFTISRDNAKNTVYLQMNSLKPEDTAVYYCAADLEPRTNAPGLPTPDGYYWGQGTQVTVSS | low polyreactivity
